Data on 1 sequence can be found in EP4786486A1, “PEPTIDES FOR TREATING CARDIAC DISEASES” (Universidad Complutense De Madrid, priority 2023, dated 2025).

One test has as its target T1, human Nav1.5 channels (Homo sapiens, UniProt Q14524).
T1 construct: expressed in transfected cells; host or cells: CHO (Chinese hamster ovary) cells
The test is described as follows: INa density, whole-cell patch-clamp in CHO cells co-transfected with Nav1.5 and the cDNA encoding the peptide. It counts as cell-based. As to conditions: vs. cells transfected only with Nav1.5 channels, various membrane potentials, P<0.05. How it is done:
To analyse the effect of the peptides designed in example 1 on INa and IK1, the cDNA that encodes SEQ ID NO: 3 or SEQ ID NO: 4, described in SEQ ID NO: 5 and 20, respectively, was cloned into a pcDNA3.1^(+)® vector (Invitrogen) for transfection of Chinese hamster ovary (CHO) cells that were in turn transfected with the cDNA that encodes the human Nav1.5 channels (SEQ ID NO: 21). The CHO cells were further co-transfected with the EBO-pcD leu 2 vector (0.5 µg), which encodes the expression of the CD8 surface antigen. The subsequent addition of anti-CD8 antibody, bonded to Dynabeads M450® microspheres, allowed the cells that had been transfected to be identified. […] The currents were recorded at 20-22°C using an Axopatch 200B amplifier, filtered at half the sampling frequency and stored in a computer for further analysis. […] The capacitive current artefacts generated after the application of pulses from 0 mV to +10 mV were recorded at 50 kHz (filtered at 10 kHz) to calculate the capacitance of the cell, the access resistance and the input impedance. […] INa was recorded by applying 50 ms pulses from a holding potential of -120 mV to potentials between -80 and +50 mV in 5 mV increments. […]

Test [1] has as its system minimal promoter of the human SCN5A gene. The test is described as follows: Luciferase promoter assay in hEK-293 cells, SCN5A. The test is classed as cell-based. As to conditions: hEK-293 cells co-transfected with cDNA SEQ ID NO: 5; 48 hours after transfection. How it is done:
48 hours after transfection, luciferase assays were performed using the LightSwitch Luciferase Assay reagent, also from Active Motif, and a Berthold luminometer. All assays were performed in triplicate and each point represents the mean of each technical triplicate.

T1 sequence (Q14524 1-2015 isoform Q14524-2): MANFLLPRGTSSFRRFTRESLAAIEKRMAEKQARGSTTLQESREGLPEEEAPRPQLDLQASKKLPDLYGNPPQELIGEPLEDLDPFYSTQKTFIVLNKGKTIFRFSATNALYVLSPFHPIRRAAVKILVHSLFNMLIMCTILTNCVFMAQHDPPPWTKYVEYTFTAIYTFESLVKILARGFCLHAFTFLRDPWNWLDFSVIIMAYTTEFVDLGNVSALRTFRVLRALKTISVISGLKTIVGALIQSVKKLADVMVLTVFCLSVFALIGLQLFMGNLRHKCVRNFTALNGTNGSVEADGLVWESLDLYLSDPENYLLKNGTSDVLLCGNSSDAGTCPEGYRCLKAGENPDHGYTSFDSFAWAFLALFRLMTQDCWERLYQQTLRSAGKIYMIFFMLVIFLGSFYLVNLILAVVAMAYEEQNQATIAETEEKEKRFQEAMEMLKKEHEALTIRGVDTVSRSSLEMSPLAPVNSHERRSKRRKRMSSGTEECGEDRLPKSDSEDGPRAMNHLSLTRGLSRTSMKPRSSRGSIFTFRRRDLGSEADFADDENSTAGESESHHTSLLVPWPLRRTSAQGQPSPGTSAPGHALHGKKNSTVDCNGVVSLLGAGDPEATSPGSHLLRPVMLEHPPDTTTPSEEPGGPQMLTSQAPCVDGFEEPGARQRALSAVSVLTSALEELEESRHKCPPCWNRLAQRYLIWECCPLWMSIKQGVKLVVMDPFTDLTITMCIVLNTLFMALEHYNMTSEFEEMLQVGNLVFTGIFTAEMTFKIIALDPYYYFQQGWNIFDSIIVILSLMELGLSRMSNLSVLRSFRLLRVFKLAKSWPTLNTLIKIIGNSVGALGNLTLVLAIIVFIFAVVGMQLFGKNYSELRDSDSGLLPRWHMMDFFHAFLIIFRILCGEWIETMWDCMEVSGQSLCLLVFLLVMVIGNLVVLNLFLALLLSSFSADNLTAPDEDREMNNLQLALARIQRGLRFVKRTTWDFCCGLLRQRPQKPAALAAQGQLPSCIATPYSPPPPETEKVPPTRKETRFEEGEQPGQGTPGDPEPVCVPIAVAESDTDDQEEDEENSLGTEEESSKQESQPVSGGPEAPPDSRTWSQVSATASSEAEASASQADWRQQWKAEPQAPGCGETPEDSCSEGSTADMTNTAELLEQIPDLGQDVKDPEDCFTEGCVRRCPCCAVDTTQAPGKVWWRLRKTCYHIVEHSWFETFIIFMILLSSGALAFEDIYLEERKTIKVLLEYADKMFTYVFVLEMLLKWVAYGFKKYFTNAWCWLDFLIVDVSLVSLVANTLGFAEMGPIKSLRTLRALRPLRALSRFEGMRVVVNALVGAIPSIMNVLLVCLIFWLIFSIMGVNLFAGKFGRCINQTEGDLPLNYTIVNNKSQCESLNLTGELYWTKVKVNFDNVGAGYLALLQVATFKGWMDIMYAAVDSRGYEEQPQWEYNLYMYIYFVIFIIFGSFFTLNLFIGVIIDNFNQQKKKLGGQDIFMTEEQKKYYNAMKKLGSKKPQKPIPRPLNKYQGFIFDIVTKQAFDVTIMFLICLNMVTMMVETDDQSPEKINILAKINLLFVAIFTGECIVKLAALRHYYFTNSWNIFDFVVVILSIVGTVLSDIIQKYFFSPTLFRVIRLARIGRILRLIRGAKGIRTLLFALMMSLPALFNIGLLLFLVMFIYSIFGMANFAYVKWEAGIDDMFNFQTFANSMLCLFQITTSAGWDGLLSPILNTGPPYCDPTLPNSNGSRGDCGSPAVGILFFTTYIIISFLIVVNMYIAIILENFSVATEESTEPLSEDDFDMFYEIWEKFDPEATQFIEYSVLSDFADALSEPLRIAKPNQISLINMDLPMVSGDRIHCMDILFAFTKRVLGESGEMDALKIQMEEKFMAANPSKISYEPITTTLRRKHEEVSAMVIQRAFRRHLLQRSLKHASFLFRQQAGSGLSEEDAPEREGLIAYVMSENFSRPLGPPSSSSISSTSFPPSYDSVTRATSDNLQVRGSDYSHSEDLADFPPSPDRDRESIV

For “RFTRESLAAIE (listed as Homo sapiens) [SEQ ID NO: 3, 11-amino acid peptide, amino acids 15-25 of human Nav1.5]”, the “density of INa” value in the test with human Nav1.5 channels is given as “significantly increase”. In test [1], the “effect on the minimal promoter of the human SCN5A gene (luciferase)” value was “no significant effect”.
